{"source": "paper PMC11825280", "biological_target": "rVSV-EBOV/Mayinga GP (EBOV/H.sap-tc/COD/76/Yambuku-Mayinga), thermolysin-cleaved (Ebola virus (EBOV)) (UniProt Q05320)", "sequence (Q05320 33-676)": "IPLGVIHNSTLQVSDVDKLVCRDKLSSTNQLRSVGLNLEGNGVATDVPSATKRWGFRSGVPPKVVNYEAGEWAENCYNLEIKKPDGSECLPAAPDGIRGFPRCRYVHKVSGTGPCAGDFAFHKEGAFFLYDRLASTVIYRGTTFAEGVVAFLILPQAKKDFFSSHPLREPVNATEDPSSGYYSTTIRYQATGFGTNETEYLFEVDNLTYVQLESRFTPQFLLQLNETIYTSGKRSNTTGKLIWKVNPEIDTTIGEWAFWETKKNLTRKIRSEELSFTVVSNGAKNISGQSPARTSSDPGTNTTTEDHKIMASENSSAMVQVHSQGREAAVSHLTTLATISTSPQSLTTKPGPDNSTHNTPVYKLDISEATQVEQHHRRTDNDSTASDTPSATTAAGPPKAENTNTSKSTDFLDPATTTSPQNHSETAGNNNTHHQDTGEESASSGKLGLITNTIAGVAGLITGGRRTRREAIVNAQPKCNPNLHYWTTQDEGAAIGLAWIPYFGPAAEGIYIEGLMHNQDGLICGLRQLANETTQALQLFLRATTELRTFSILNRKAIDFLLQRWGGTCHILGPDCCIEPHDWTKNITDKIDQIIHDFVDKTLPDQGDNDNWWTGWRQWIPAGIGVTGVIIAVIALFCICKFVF", "assay": "ELISA"}
{"substance": "soluble human NPC1 domain C (NPC1-C) (from UniProt O15118 23-1278) (domain or fragment)", "values": [{"measurement": "binding AUC", "result": 277}]}
